Assay results: patent US20200079850A1 (SUTRO BIOPHARMA, published 2020)

T1: recombinant human LAG3 protein (rhLAG3), HIS-tagged (ACRO) or biotinylated (R&D Cat #2319-C3) (human, UniProt P18627 23-450, biotinylated in part of the assays)
T1 sequence: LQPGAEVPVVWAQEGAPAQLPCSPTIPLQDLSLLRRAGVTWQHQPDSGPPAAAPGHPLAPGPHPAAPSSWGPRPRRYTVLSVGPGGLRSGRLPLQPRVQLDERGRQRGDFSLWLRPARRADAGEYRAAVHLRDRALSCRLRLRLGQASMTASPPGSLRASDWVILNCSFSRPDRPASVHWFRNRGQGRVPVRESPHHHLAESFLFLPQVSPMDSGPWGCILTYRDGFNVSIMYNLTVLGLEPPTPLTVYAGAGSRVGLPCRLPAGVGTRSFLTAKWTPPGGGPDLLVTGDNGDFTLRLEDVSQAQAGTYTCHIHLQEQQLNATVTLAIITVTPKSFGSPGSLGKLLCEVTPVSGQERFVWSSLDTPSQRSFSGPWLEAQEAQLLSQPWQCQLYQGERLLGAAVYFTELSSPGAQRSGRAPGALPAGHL

T2: human LAG3 expressed on the cell surface (CHO-LAG3, 293T-LAG3 cells) (human, UniProt P18627 23-525)
T2 construct: Stably transfected CHO or HEK293T cells; also called Human LAG3 (CHO); Human LAG3 (293T)
T2 sequence: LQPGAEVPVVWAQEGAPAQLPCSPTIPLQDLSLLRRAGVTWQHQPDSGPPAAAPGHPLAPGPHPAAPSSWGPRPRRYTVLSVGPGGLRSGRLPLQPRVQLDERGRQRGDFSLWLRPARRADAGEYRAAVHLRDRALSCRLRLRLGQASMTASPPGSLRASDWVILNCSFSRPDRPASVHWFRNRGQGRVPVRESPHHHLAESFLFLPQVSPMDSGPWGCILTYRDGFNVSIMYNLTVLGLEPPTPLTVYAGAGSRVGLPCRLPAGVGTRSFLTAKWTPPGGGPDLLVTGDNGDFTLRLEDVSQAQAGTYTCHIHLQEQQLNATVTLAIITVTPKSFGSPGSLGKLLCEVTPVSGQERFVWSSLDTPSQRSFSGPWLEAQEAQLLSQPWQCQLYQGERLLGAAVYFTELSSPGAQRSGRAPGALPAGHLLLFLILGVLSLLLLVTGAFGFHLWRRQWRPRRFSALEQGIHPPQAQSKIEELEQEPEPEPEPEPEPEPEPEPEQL

T3: human LAG3-Fc (R&D Systems #2319-L3) (human, UniProt P18627 23-450)
T3 construct: Bought protein; also called Human LAG3 (Biacore)
T3 sequence: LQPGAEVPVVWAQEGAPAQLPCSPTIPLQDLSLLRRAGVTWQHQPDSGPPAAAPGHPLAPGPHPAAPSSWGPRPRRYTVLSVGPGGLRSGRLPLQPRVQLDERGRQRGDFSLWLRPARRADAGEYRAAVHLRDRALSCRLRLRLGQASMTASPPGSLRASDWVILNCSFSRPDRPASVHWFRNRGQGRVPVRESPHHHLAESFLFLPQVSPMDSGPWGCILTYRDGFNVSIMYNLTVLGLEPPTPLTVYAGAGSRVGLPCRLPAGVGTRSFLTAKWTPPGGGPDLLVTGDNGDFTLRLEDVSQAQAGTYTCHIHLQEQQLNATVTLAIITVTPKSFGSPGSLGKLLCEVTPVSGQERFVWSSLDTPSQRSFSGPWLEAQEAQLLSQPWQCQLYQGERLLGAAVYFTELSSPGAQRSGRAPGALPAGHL


Key:
[1] = target: T1, recombinant human LAG3 protein …; assay: flow cytometry competition, rhLAG3 binding to Daudi cells; competitor MHCII
Protocol: DAUDI cells express high levels of Major Histocompatibility Class II (MHCII) molecules, a natural ligand for LAG3, on the cell surface. DAUDI cells were used to screen for antibodies that inhibit binding of HIS-tagged (ACRO) or biotinylated recombinant human LAG3 protein (rhLAG3) to MHCII expressed on the cell surface.
DAUDI cells were cultured in RPMI w/10% FCS Pen/Strep and Gln and split every 3-4 days at 10^5 cells/ml. Cells were washed 2× with FACS buffer (PBS w/2% FCS), […] at a final concentration of 1×10⁶ cells/ml and seeded at 100 μl per well on 96 well polypropylene plates. Plates were spun at 1500 rpm for 5 minutes and cell pellets were suspended in 50 μl FACS buffer containing 8 point 1:3 dilutions (2× concentrated) of anti-LAG3 antibody variants, starting from high concentration of −600 nM. 50 μl FACS buffer containing 10-20 μg/ml of the HIS-tagged rhLAG3 protein or 40 μg/ml of the biotinylated rhLAG3 protein were then added to the cells. Cell were then incubated in ice for 1 hr, washed with FACS buffer and incubated for 1 hr in ice with 50 μl FACS buffer containing 2 μg/ml R-Phycoerythrin-conjugated Streptavidin (eBiosciences) or 1 μg/ml R-Phycoerythrin-conjugated anti-HIS IgG (Abcam). Cell were washed 2× with FACS buffer and fixed for 10 minutes in 200 μl PBS w/2% PFA prior to acquisition.

[2] = target: T2, human LAG3 expressed on the cell …; assay: flow cytometry, CHO cells expressing human LAG3
Protocol: LAG3 antibody variants were tested in a fluorescence-activated cell sorting (FACS) cell-binding assay. Chinese Hamster Ovary (CHO) cells or HEK293T cells stably expressing the human target molecule LAG3 on the cell surface (CHO-LAG3, 293T-LAG3) were used to screen for cell binders by flow cytometry. Parental CHO or 293T cells were used as a negative control to determine background-binding levels. Cells were cultured in RPMI with 10% FCS Penicillin/Streptomycin (or Pen/Strep) and glutamine (or Gln) and split every 3-4 days at 10⁵ cells/ml.
A mix of parental CHO cells and CHO-LAG3 cells (or 293T and 293T-LAG3 cells) was prepared as follows: Parental CHO cells were washed 2× in PBS then incubated in PBS containing 1 nM CellTrace™ Oregon Green488® (Life Technologies) at 37° C. for 30 minutes. […] Parental CHO cells and CHO-LAG3 cells were then mixed to obtain a 1:1 cell suspension and seeded at 100 μl per well on 96 well polypropylene plates. Plates were spun at 1500 rpm for 5 minutes and cell pellets were suspended in 50 μl FACS buffer containing 6-12 point dilutions of anti-LAG3 variants starting from concentrations of ˜100-200 nM antibody, dispensed using BioMekFX (Beckman Coulter). Cells were then incubated on ice for 1 hr, washed with FACS buffer and incubated for 1 hr on ice with 50 μl FACS buffer containing 2.5 μg/ml R-Phycoerythrin-conjugated Goat Anti-Human IgG (Jackson ImmunoResearch) or AF647-conjugated Goat Anti-mouse IgG (Life Technologies) dispensed using BioMekFX (Beckman Coulter). Cells were then washed 2× with FACS buffer and fixed for 10 minutes in 200 μl PBS with 2% PFA prior to fluorescence detection. Samples were acquired using a Beckton Dickinson LSRII FACS. Mean Fluorescence Intensity of LAG3 antibody binding was analyzed using Tree Star, Inc. FlowJo® software.

[3] = target: T3, human LAG3-Fc (R&D Systems #2319-L3); assay: SPR (Biacore), antibody captured by anti-Flag, LAG3-Fc as analyte, 25 C
Protocol: Anti-Flag M2 IgG (Sigma-Aldrich # F9291) was immobilized onto a CMS chip (GE Life Sciences) using amine coupling chemistry (from Amine Coupling Kit, GE Life Sciences). The immobilization steps were carried out at a flow rate of 25 μL/min in 1×HBS-EP+ buffer (GE Life Sciences; 10×Stock diluted before use). The sensor surfaces were activated for 7 min with a mixture of NHS (0.05 M) and EDC (0.2 M). The Anti-Flag M2 IgG was injected over all 4 flow cells at a concentration of 25 μg/mL in 10 mM sodium acetate, pH 4.5, for 7 min. Ethanolamine (1 M, pH 8.5) was injected for 7 min to block any remaining activated groups. An average of 12,000 response units (RU) of capture antibody was immobilized on each flow cell.
Off-rate and kinetic binding experiments were performed at 25° C. using 1×HBS-EP+buffer. Test and control antibodies were injected over the Anti-Flag surface at concentrations of 5-10 μg/mL for 12 seconds at a flow rate of 10 μL/min on flow cells 2, 3 and 4, followed by a buffer wash for 30 seconds at the same flow rate. Kinetic characterization of antibody samples was carried out with a single concentration of antigen (for off-rate ranking) or a dilution series of antigen (for kinetic characterization) and 1 injection of 0 nM antigen. After capturing ligand (antibody) on the anti-Flag surface, the analyte (human LAG3-Fc, R&D Systems #2319-L3; or cynomolgus LAG3-Fc, accession # NC 022282.1) was bound at 50, 25, 12.5, 6.25, and 0 nM for 180 seconds, followed by a 600 second dissociation phase at a flow rate of 50 μl/min Between each ligand capture and analyte binding cycle, regeneration was carried out using 2 injections of 10 mM glycine pH 2.0 for 30 seconds at 30 μL/min, followed by a 30 second buffer wash step.
The data were fit with the Biacore T200 Evaluation software, using a 1:1 Langmuir binding model. KD (affinity, nM) was determined as a ratio of the kinetic rate constants calculated from the fits of the association and dissociation phases.

[4] = target: T4, human PD-1 expressed on the surface of CHO cells (human, UniProt Q15116 25-288); assay: flow cytometry, CHO-PD1 cells
T4 construct: I took it as human PD-1; also called CHO-PD1
Protocol: CHO-k cells stably expressing PD-1 or LAG3 (human or cynomolgus) on the cell surface were used to assess binding affinity of anti-PD-1/LAG3 bispecific antibody constructs. Cells were seeded at 100,000 cells/well in 100 μL of FACS buffer (1×PBS, 0.5% BSA, 0.1% sodium azide) in 96-well polypropylene plates. The cells were centrifuged at 1.5K rpm and resuspended with test antibodies diluted in FACS buffer and incubated on ice for 1 hour. The cells were washed twice with FACS buffer and incubated on ice for 30 mins with R-Phycoerythrin-AffiniPure F(ab′)2 Fragment Goat Anti-Human IgG (H+L) secondary detection antibody (1:200 dilution, Jackson ImmunoResearch Laboratories, West Grove, Pa.). The cells were washed twice with FACS buffer, fixed in 4% paraformaldehyde in PBS (Santa Cruz Biotechnology; Dallas, Tex.) for 20 mins on ice in the dark, washed twice with FACS buffer, and analyzed using the BD LSR II Flow Cytometer (BD Biosciences; San Jose, Calif.). Data were analyzed using FlowJo (FlowJo, LLC; Ashland, Oreg.) to determine mean fluorescence intensities. Binding constants were calculated using the statistical software, GraphPad Prism (GraphPad Software; La Jolla, Calif.) using the nonlinear regression equation, one site—specific binding with Hill slope. The secondary antibody by itself was used as a control.

T4 sequence (Q15116 25-288 limits assumed): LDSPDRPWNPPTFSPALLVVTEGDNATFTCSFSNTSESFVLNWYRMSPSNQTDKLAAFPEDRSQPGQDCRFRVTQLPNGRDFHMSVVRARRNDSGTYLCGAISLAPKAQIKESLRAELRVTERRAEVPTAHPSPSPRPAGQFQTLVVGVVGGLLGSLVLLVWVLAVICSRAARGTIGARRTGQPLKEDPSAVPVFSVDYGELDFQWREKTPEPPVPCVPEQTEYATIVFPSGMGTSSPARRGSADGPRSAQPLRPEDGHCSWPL

Row | Binder | IC50 [1] [nM] | Kd [2] [nM] | Kd [3] [nM] | koff [3] [s⁻¹] | kon [3] [M⁻¹ s⁻¹] | Bmax [4] | Kd [4] [nM]
1 | 421.61.4.5G11 (antibody, V domains shown) VH: EVQLQQSGAELVRSGASVKLSCTASGFNIKDYYMHWVKQRPEQGLEWIAWIDPENGDTEYAPKFQGRATLTADTSSNTAYLHLSSLTSEDTAVYYCNAPDALDYWGQGTSVTVSS VL: not shown | 64.3 | 18 | 10.3 | 0.000515 | 50200 | – | –
2 | Construct G: aPD1 1353-G10 Fab_K × aLAG3 1449-G09.2 scFvFc_H (three-chain Fab x scFvFc) (bispecific antibody, human IgG1, lambda) heavy: not shown light: MSYELTQPPSVSVSPGQTARITCSGDALPKQYAYWYQQKPGQAPVMVIYKDTERPSGIPERFSGSSSGTKVTLTISGVQAEDEADYYCQSADNSITYRVFGGGTKVTVLGQPKAAPSVTLFPPSSEELQANKATLVCLISDFYPGAVTVAWKADSSPVKAGVETTTPSKQSNNKYAASSYLSLTPEQWKSHRSYSCQVTHEGSTVEKTVAPTECS scFv: not shown | – | – | – | – | – | 6380 | 0.8
3 | Construct H: aPD1 1353-G10 Fab_H × aLAG3 1449-G09.2 scFvFc_K (three-chain Fab x scFvFc) (bispecific antibody, human IgG1, lambda) heavy: not shown light: MSYELTQPPSVSVSPGQTARITCSGDALPKQYAYWYQQKPGQAPVMVIYKDTERPSGIPERFSGSSSGTKVTLTISGVQAEDEADYYCQSADNSITYRVFGGGTKVTVLGQPKAAPSVTLFPPSSEELQANKATLVCLISDFYPGAVTVAWKADSSPVKAGVETTTPSKQSNNKYAASSYLSLTPEQWKSHRSYSCQVTHEGSTVEKTVAPTECS scFv: not shown | – | – | – | – | – | 5460 | 0.4
4 | SRP1449-B03 (scFv, V domains shown) VH: QVQLVESGGGVVQPGRSLRLSCAASGFTFSSYGMHWVRQAPGKGLEWVAAIWYDASYKYYADSVKGRFTISRDNSKNTLYLQMNSLRAEDTAVYYCAREWAVASWDYALDVWGQGTTVTVSS VL: EIVLTQSPGTMSLSPGERATLSCRASQSVSSSYLAWYQQKPGQAPRLLIYGASSRATGIPDRFSGSGSGTDFTLTISRLEPEDFAVYYCQQYDRSPLTFGPGTKVDIK | 1 | 1.92 | 0.64 | 0.000302 | 472000 | – | –
5 | SRP1449-B07 (scFv, V domains shown) VH: QVQLVESGGGVVQPGRSLRLSCAASGFTFSSYGMHWVRQAPGKGLEWVAVIWYDGSNKYYADSVKGRFTISRDNSKNTLYLQMNSLRAEDTAVYYCAREWAVSSWDYGMDVWGQGTTVTVSS VL: not shown | 1.2 | 1.06 | 0.676 | 0.000536 | 794000 | – | –
